Substitutions are numbered along the chain they refer to. Numbers in names are those of the source. Blank lines part the entries; values can stand above or below the binder they belong to.
Legend:
[1] = target: T1, Avitag_FLAG_His6_cyTSLP QB11632 (wild type) (cynomolgus monkey); assay: cell-based or functional assay
T1 chain: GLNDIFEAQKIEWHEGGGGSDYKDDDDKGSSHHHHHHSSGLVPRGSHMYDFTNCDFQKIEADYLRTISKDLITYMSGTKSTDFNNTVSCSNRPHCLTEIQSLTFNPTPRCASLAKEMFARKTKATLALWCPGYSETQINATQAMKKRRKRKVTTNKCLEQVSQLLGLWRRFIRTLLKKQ

[2] = target: T2, Avitag_c-MYC_His6_hTSLP QB11631 with mutations of R127A + R130S (human); assay: cell-based or functional assay
[3] = target: T1, Avitag_FLAG_His6_cyTSLP QB11632 (wild …); assay: SPR, captured antibody, monomeric TSLP analyte, 25 C, 1:1 Langmuir fit
[4] = target: T3, Avitag_FLAG_His6_cyTSLP QB11633 with mutations of R127A + R130S (cynomolgus monkey); assay: as above
T3 construct: Substitutions and tags already in the entry; also called cyTSLP (R127A+R130S)
T3 chain: T1 chain with R147A, R150S

[5] = target: T4, Avitag_c-MYC_His6_hTSLP (wild type) QB11630 (human); assay: as above
T4 construct: N-terminal tags are part of the entry; also called in-house hTSLP native antigen QB11630

[6] = target: T2, Avitag_c-MYC_His6_hTSLP QB11631 with …; assay: as above
[7] = target: hTSLP, R&D Systems 1398-TS-010 (E. coli) (human, UniProt Q969D9 29-159, limits assumed); assay: as above
[8] = target: T5, native hTSLP derived from human Small Airway Epithelial Cells (healthy donor 1 and donor 2) (human, UniProt Q969D9 29-159, limits assumed); assay: cell-based or functional assay
[9] = target: T4, Avitag_c-MYC_His6_hTSLP (wild type) …; assay: cell-based or functional assay
[10] = target: T4, Avitag_c-MYC_His6_hTSLP (wild type) …; assay: SPR, in-house hTSLP QB11630 analyte
[11] = target: T5, native hTSLP derived from human Small …; assay: cell-based or functional assay; remark: listed apart in the source
[12] = target: T3, Avitag_FLAG_His6_cyTSLP QB11633 with …; assay: cell-based or functional assay
[13] = target: T4, Avitag_c-MYC_His6_hTSLP (wild type) …; assay: cell-based or functional assay; remark: listed apart in the source
[14] = target: T4, Avitag_c-MYC_His6_hTSLP (wild type) …; assay: cell-based or functional assay; remark: listed apart in the source
[15] = target: T2, Avitag_c-MYC_His6_hTSLP QB11631 with …; assay: cell-based or functional assay; remark: listed apart in the source
[16] = target: T1, Avitag_FLAG_His6_cyTSLP QB11632 (wild …); assay: cell-based or functional assay
[17] = target: T6, cyTSLP (R127A, R130S), Sino Biological 90911-C08H-100 (HEK293) (cynomolgus monkey, UniProt A0A7N9CAT7 29-159); assay: SPR, captured antibody, monomeric TSLP analyte, 25 C, 1:1 Langmuir fit
T6 construct: also called Sino-RA-RS

[18] = target: T7, cyTSLP, ACRO Biosystems TSP-C52H8 (HEK293) (cynomolgus monkey, UniProt A0A7N9CAT7 29-159); assay: as above
T7 construct: also called Acro WT

[19] = target: T8, cyTSLP (R127A, R130S), ACRO Biosystems TSP-C52H4 (HEK293) (cynomolgus monkey, UniProt A0A7N9CAT7 29-159); assay: as above
T8 construct: also called Acro-RA-RS

[20] = target: T9, hTSLP, ACRO Biosystems TSP-H52Hb (HEK293) (human, UniProt Q969D9 29-159, limits assumed); assay: as above
T9 construct: also called Acro-WT

[21] = target: T2, Avitag_c-MYC_His6_hTSLP QB11631 with …; assay: cell-based or functional assay; remark: listed apart in the source
[22] = target: T2, Avitag_c-MYC_His6_hTSLP QB11631 with …; assay: cell-based or functional assay; remark: listed apart in the source
[23] = target: T4, Avitag_c-MYC_His6_hTSLP (wild type) …; assay: cell-based or functional assay; remark: listed apart in the source
[24] = target: T2, Avitag_c-MYC_His6_hTSLP QB11631 with …; assay: cell-based or functional assay; remark: listed apart in the source
[25] = target: T1, Avitag_FLAG_His6_cyTSLP QB11632 (wild …); assay: cell-based or functional assay
[26] = target: T4, Avitag_c-MYC_His6_hTSLP (wild type) …; assay: cell-based or functional assay; remark: listed apart in the source
[27] = target: T1, Avitag_FLAG_His6_cyTSLP QB11632 (wild …); assay: cell-based or functional assay

IC50, inhibition of TSLP-induced proliferation of BaF3 cells expressing hTSLPR/hIL-7Rα (CellTiter-Glo, RLU); stimulus cyTSLP QB11632 [1]: 340 pM
IC50, inhibition of TSLP-induced proliferation of BaF3 cells expressing hTSLPR/hIL-7Rα (CellTiter-Glo, RLU); stimulus hTSLP QB11631 [2]: 170 pM
Kd [3]: 1270 pM
koff [3]: 0.000174 s⁻¹
kon [3]: 137000 M⁻¹ s⁻¹
Kd [4]: 131 pM
koff [4]: 0.000132 s⁻¹
kon [4]: 1.01e+06 M⁻¹ s⁻¹
Kd [5]: 154 pM
koff [5]: 0.000196 s⁻¹
kon [5]: 1.27e+06 M⁻¹ s⁻¹
Kd [6]: 59.5 pM
koff [6]: 0.000192 s⁻¹
kon [6]: 3.23e+06 M⁻¹ s⁻¹
Kd [7]: 4 pM
koff [7]: 0.000142 s⁻¹
kon [7]: 3.56e+07 M⁻¹ s⁻¹
IC50, inhibition of TSLP-induced proliferation of BaF3 cells expressing hTSLPR/hIL-7Rα (CellTiter-Glo, RLU); stimulus native hTSLP from healthy donor 1 [8]: 12 pM
IC50, inhibition of TSLP-induced proliferation of BaF3 cells expressing hTSLPR/hIL-7Rα (CellTiter-Glo, RLU); stimulus hTSLP QB11630 [9]: 100 pM
fold lower binding affinity against QB10985 [10]: ~3 fold
IC50, inhibition of TSLP-induced proliferation of BaF3 cells expressing hTSLPR/hIL-7Rα (CellTiter-Glo, RLU); stimulus native hTSLP from healthy donor 2 [11]: 12 pM
IC50, inhibition of TSLP-induced proliferation of BaF3 cells expressing hTSLPR/hIL-7Rα (CellTiter-Glo, RLU); stimulus cyTSLP QB11633 [12]: 120 pM
B1: anti-hTSLP IgG1-D265A antibody QB11764 (antibody, V domains shown)
VH: EVQLVESGGGLVQPGGSLRLSCAASGFDFSSYWISWVRQAPGKRPEWIASIDIDIDIADYASWAKGRFTISRDNSKNTLYLQMNSLRAEDTAVYYCVRNLGLWGPGTLVTVSS
VL: DIQMTQSPSSLSASVGDRVTITCQSSQNVYDKDALAWYQHKPGKRPKLLIYEASRLASGVPSRFSGSGSGTHFTLTISSLQPEDAATYYCAGTRIDNIYTFGDGTKVEIKR
notes: QB11548 altered for MabPair production; alterations are in the entries; also called lead anti-hTSLP antibody QB11764

IC50, inhibition of TSLP-induced proliferation of BaF3 cells expressing hTSLPR/hIL-7Rα (CellTiter-Glo, RLU); stimulus cyTSLP QB11632 [1]: 12 pM
IC50, inhibition of TSLP-induced pSTAT5 (AlphaLISA, MFI) in cultured primary human ILC2 cells; stimulus hTSLP QB11630 [13]: 1.5 nM
IC50, inhibition of hTSLP-induced IL-5 secretion from human ILC2s [14]: 100 pM
IC50, inhibition of hTSLP-induced IL-5 secretion from human ILC2s [15]: 350 pM
IC50, inhibition of TSLP-induced proliferation of BaF3 cells expressing hTSLPR/hIL-7Rα (CellTiter-Glo, RLU); stimulus hTSLP QB11631 [2]: 12 pM
IC50, inhibition of TSLP-induced pSTAT5 (AlphaLISA, MFI) in cultured primary human ILC2 cells; stimulus cyTSLP QB11632 [16]: 0.46 nM
Kd [17]: 18.7 pM
Kd [3]: 831 pM
Kd [18]: 29.5 pM
Kd [4]: 75 pM
Kd [19]: 26.3 pM
Kd [5]: 77.8 pM
Kd [20]: 11.8 pM
Kd [6]: 16.3 pM
Kd [7]: 5.02 pM
IC50, inhibition of TSLP-induced proliferation of BaF3 cells expressing hTSLPR/hIL-7Rα (CellTiter-Glo, RLU); stimulus native hTSLP from healthy donor 1 [8]: 1.4 pM
IC50, inhibition of TSLP-induced pSTAT5 (AlphaLISA, MFI) in BaF3 cells expressing hTSLPR/hIL-7Rα; stimulus hTSLP QB11631 [21]: 0.78 nM
IC50, inhibition of TSLP-induced pSTAT5 (AlphaLISA, MFI) in cultured primary human ILC2 cells; stimulus hTSLP QB11631 [22]: 3.1 nM
IC50, inhibition of TSLP-induced pSTAT5 (AlphaLISA, MFI) in BaF3 cells expressing hTSLPR/hIL-7Rα; stimulus hTSLP QB11630 [23]: 1.7 nM
IC50, inhibition of TSLP-induced CCL17 release from primary human monocytes (ELISA, pg/mL); stimulus hTSLP QB11631 [24]: 1.3 pM
IC50, inhibition of TSLP-induced proliferation of BaF3 cells expressing hTSLPR/hIL-7Rα (CellTiter-Glo, RLU); stimulus hTSLP QB11630 [9]: 5.8 pM
IC50, inhibition of TSLP-induced proliferation of BaF3 cells expressing hTSLPR/hIL-7Rα (CellTiter-Glo, RLU); stimulus native hTSLP from healthy donor 2 [11]: 1.8 pM
IC50, inhibition of TSLP-induced CCL17 release from primary human monocytes (ELISA, pg/mL); stimulus cyTSLP QB11632 [25]: 2.7 pM
IC50, inhibition of TSLP-induced CCL17 release from primary human monocytes (ELISA, pg/mL); stimulus hTSLP QB11630 [26]: 4.5 pM
IC50, inhibition of TSLP-induced pSTAT5 (AlphaLISA, MFI) in BaF3 cells expressing hTSLPR/hIL-7Rα; stimulus cyTSLP QB11632 [27]: 0.28 nM
IC50, inhibition of TSLP-induced proliferation of BaF3 cells expressing hTSLPR/hIL-7Rα (CellTiter-Glo, RLU); stimulus cyTSLP QB11633 [12]: 2.2 pM
B2: anti-hTSLP IgG1-D265A antibody QB11718 (antibody, V domains shown)
VH: QVQLVQSGPEVKKPGSSVKVSCKASGYIFTDYAMHWVRQRPGQDLEWMGTFIPLLDTSDYNQNFKGRATITADKSTSTAYMELSSLRSEDTAVYYCARMGVTHSYVMDAWGQGTLVTVSS
VL: EIVLTQSPGTLSLSPGERATLSCRASQHISRSVHWYQQKPGEAPRLLIYFASQSISGIPDRFSGSGSGTDFTLTISRLESEDFAVYYCQQSYSFPYTFGRGTKVEIKR
notes: QB11237 altered for MabPair production; alterations are in the entries; also called lead anti-hTSLP antibody QB11718

Reference: patent US20260234234A1 (QILU PUGET SOUND BIOTHERAPEUTICS, published 2026)
